What all share (experiment): purified protein
Assay type in all cases: biochemical, Escherichia coli

Substrate in data set [1]: Cc1cn([C@H]2C[C@H](O)[C@@H](COP(=O)(O)O)O2)c(=O)[nH]c1=O
To be noted: 2 mM ATP, 10 mM Mg acetate, 50 mM K acetate, 20 mM Tris-acetate, 37°C, three protein batches (N = 3).

Substrate in data set [2]: Nc1nc2c(ncn2[C@H]2C[C@H](O)[C@@H](COP(=O)(O)O)O2)c(=O)[nH]1
The settings on record: 2 mM ATP, 10 mM Mg acetate, 50 mM K acetate, 20 mM Tris-acetate, 37°C, three protein batches (N = 3).

Substrate in data set [3]: Nc1ccn([C@H]2C[C@H](O)[C@@H](COP(=O)(O)O)O2)c(=O)n1
The settings on record: 2 mM ATP, 10 mM Mg acetate, 50 mM K acetate, 20 mM Tris-acetate, 37°C, three protein batches (N = 3).

Substrate in data set [4]: Nc1ccn([C@H]2C[C@H](O)[C@@H](COP(=O)(O)OP(=O)(O)O)O2)c(=O)n1
To be noted: 2 mM ATP, 10 mM Mg acetate, 50 mM K acetate, 20 mM Tris-acetate, 37°C.

Substrate in data set [5]: Cc1cn([C@H]2C[C@H](O)[C@@H](COP(=O)(O)OP(=O)(O)O)O2)c(=O)[nH]c1=O
To be noted: 2 mM ATP, 10 mM Mg acetate, 50 mM K acetate, 20 mM Tris-acetate, 37°C.

Substrate in data set [6]: Nc1ncnc2c1ncn2[C@H]1C[C@H](O)[C@@H](COP(=O)(O)OP(=O)(O)O)O1
To be noted: 2 mM ATP, 10 mM Mg acetate, 50 mM K acetate, 20 mM Tris-acetate, 37°C.

Substrate in data set [7]: Nc1nc2c(ncn2[C@H]2C[C@H](O)[C@@H](CO[P@](=O)(O)OP(=O)(O)O)O2)c(=O)[nH]1
The settings on record: 2 mM ATP, 10 mM Mg acetate, 50 mM K acetate, 20 mM Tris-acetate, 37°C.

Here are results for four proteins from article PMC10952841, “Biocatalytic synthesis of 2′‐deoxynucleotide 5′‐triphosphates from bacterial genomic DNA: Proof of principle” (Biotechnology and Bioengineering, 2023).

B1: thymidylate kinase (tmk) (Escherichia coli K-12) (protein)
chain: MRSKYIVIEGLEGAGKTTARNVVVETLEQLGIRDMVFTREPGGTQLAEKLRSLVLDIKSVGDEVITDKAEVLMFYAARVQLVETVIKPALANGTWVIGDRHDLSTQAYQGGGRGIDQHMLATLRDAVLGDFRPDLTLYLDVTPEVGLKRARARGELDRIEQESFDFFNRTRARYLELAAQDKSIHTIDATQPLEAVMDAIRTTVTHWVKELDA
notes: C-terminal 6x His tag (pET24a), kept; E. coli BL21(DE3) host; Ni-NTA
For orientation: Km means the concentration of substrate that gives half-maximal velocity. In general, Vmax refers to the rate approached at saturating substrate. As to B1, in “purified protein [1]”, the Michaelis constant (Km) was 150 ± 22 µM and the Vmax worked out at 39.4 µmol/min/mg.

B2: guanylate kinase (gmk) (Escherichia coli K-12) (protein)
chain: MAQGTLYIVSAPSGAGKSSLIQALLKTQPLYDTQVSVSHTTRQPRPGEVHGEHYFFVNHDEFKEMISRDAFLEHAEVFGNYYGTSREAIEQVLATGVDVFLDIDWQGAQQIRQKMPHARSIFILPPSKIELDRRLRGRGQDSEEVIAKRMAQAVAEMSHYAEYDYLIVNDDFDTALTDLKTIIRAERLRMSRQKQRHDALISKLLAD
notes: as for B1
For B2, in the data set “purified protein [2]”, the Km came out at 848 ± 402 µM and the Vmax worked out at 76.2 µmol/min/mg.

B3: cytidylate kinase (cmk) (Escherichia coli K-12) (protein)
chain: MTAIAPVITIDGPSGAGKGTLCKAMAEALQWHLLDSGAIYRVLALAALHHHVDVASEDALVPLASHLDVRFVSTNGNLEVILEGEDVSGEIRTQEVANAASQVAAFPRVREALLRRQRAFRELPGLIADGRDMGTVVFPDAPVKIFLDASSEERAHRRMLQLQEKGFSVNFERLLAEIKERDDRDRNRAVAPLVPAADALVLDSTTLSIEQVIEKALQYARQKLALA
notes: as for B1
Turning to B3, in “purified protein [3]”, the Km came out at 314 ± 154 µM and the Vmax amounted to 69.3 µmol/min/mg.

B4: nucleotide disphosphate kinase (ndk; NDK) (Escherichia coli K-12) (protein)
chain: AIERTFSIIKPNAVAKNVIGNIFARFEAAGFKIVGTKMLHLTVEQARGFYAEHDGKPFFDGLVEFMTSGPIVVSVLEGENAVQRHRDLLGATNPANALAGTLRADYADSLTENGTHGSDSVESAAREIAYFFGEGEVCPRTR
notes: as for B1
For the protein B4, the Km in the data set “purified protein [4]” was 543 ± 105 µM; in the data set “purified protein [5]”, 2398 ± 1036 µM; in the data set “purified protein [6]” it was 1185 ± 87 µM; in the data set “purified protein [7]”, 431 ± 89 µM.
